Measurements from US20200207841A1 (MIT, published 2020).
Where two headings read alike, the source gives them in different places.

Key:
EDIII-DV2 [1] = molecular target: T1, EDIII-DV2 (Dengue virus serotype 2 (DV2), UniProt P14337 581-673)
T1 construct: also called EDIII of DV2; EDIII-DVII

EDIII-DV1 [2] = molecular target: T2, EDIII-DV1 (Dengue virus serotype 1 (DV1), UniProt P17763 581-673)
T2 construct: also called EDIII of DV1; EDIII-DVI

EDIII-DV4 [3] = molecular target: T3, EDIII-DV4 (Dengue virus serotype 4 (DV4), UniProt P09866 580-672)
T3 construct: also called EDIII of DV4; DV4 EDIII

EDIII-DV3 [4] = molecular target: T4, EDIII-DV3 (Dengue virus serotype 3 (DV3), UniProt Q6YMS3 579-671)
T4 construct: also called EDIII of DV3; EDIII-DVIII

EDIII-DV4 [5] = molecular target: T3, EDIII-DV4; experiment: competition ELISA; affinity relative to 4E5A
EDIII-DV3 [6] = molecular target: T4, EDIII-DV3; experiment: competition ELISA; affinity relative to 4E5A
EDIII-DV1 [7] = molecular target: T2, EDIII-DV1; experiment: competition ELISA; affinity relative to 4E5A
EDIII-DV4 [8] = molecular target: T3, EDIII-DV4; remark: listed apart in the source
EDIII-DV2 [9] = molecular target: T1, EDIII-DV2; remark: listed apart in the source
EDIII-DV3 [10] = molecular target: T4, EDIII-DV3; remark: listed apart in the source
EDIII-DV1 [11] = molecular target: T2, EDIII-DV1; remark: listed apart in the source
EDIII-DV4 [12] = molecular target: T3, EDIII-DV4; experiment: scFv displayed on yeast (YSD), soluble tagged EDIII-DV4 titrated, read by FACS
EDIII-DV4 [13] = molecular target: T3, EDIII-DV4; remark: listed apart in the source
EDIII-DV4 [14] = molecular target: T3, EDIII-DV4; experiment: calculated from KD, relative to 4E11 WT
EDIII-DV4 [15] = molecular target: T3, EDIII-DV4; experiment: calculated from KD, ΔG = RTln(KD) at 25° C.

Row | Binder | kon (EDIII-DV2 [1]) [M⁻¹ s⁻¹] | Kd (EDIII-DV1 [2]) [nM] | koff (EDIII-DV1 [2]) [s⁻¹] | kon (EDIII-DV1 [2]) [M⁻¹ s⁻¹] | Kd (EDIII-DV3 [4]) [nM] | koff (EDIII-DV3 [4]) [s⁻¹] | REL AFFINITY (EDIII-DV4 [5]) | REL AFFINITY (EDIII-DV3 [6]) | REL AFFINITY (EDIII-DV1 [7]) | Kd (EDIII-DV4 [8]) [nM] | Kd (EDIII-DV2 [9]) [nM] | Kd (EDIII-DV3 [10]) [nM] | Kd (EDIII-DV1 [11]) [nM] | Kd (EDIII-DV2 [1]) [nM] | also measured
1 | VH_A25_del (antibody, V domains shown, also called 4E5-del-25; copies: 2 + 2) VH: VKLLEQSGAELVKPGASVRLSCTSGFNIKDTYMSWVKQRPEQGLEWIGRIDPENGDTKYDPKFQGKATITADTSSNTAYLHLSSLTSGDTAVYYCSRGWEGFAYWGQGTLVTVSA VL: ELVMTQTPASLAVSLGQRATISCRASENVDKYGNSFMHWYQQKAGQPPKLLIYRASELQWGIPARFSGSGSRTDFTLTINPVEADDVATYFCQRSNEVPWTFGGGTKLEIK | 2.74e+06 | 1.43 | 0.00133 | 933000 | 5.4 | 0.0269 | 0.54 | 1.22 | 0.29 | 236 | < 0.3 | 19.8 | 1.27 | – | koff (EDIII-DV2 [1]): 0.000182 s⁻¹; Kd (EDIII-DV4 [3]): 25.9 nM; koff (EDIII-DV4 [3]): 0.13 s⁻¹; kon (EDIII-DV4 [3]): 4.99e+06 M⁻¹ s⁻¹; kon (EDIII-DV3 [4]): 4.98e+06 M⁻¹ s⁻¹
2 | 4E5A single chain Fv on yeast (scFv, V domains shown, also called 4E5A scFv) VH: VKLLEQSGAELVKPGASVRLSCTASGFNIKDTYMSWVKQRPEQGLEWIGRIDPENGDTKYDPKFQGKATITADTSSNTAYLHLSSLTSGDTAVYYCSRGWEGFAYWGQGTLVTVSA VL: ELVMTQTPASLAVSLGQRATISCRASENVDKYGNSFMHWYQQKAGQPPKLLIYRASELQWGIPARFSGSGSRTDFTLTINPVEADDVATYFCQRSNEVPWTFGGGTKLEIKR | – | – | – | – | – | – | – | – | – | – | – | – | – | – | Kd (EDIII-DV4 [12]): 650 nM
3 | VH_G27P (antibody, V domains shown, also called 4E5-G27P; copies: 2 + 2) VH: VKLLEQSGAELVKPGASVRLSCTASPFNIKDTYMSWVKQRPEQGLEWIGRIDPENGDTKYDPKFQGKATITADTSSNTAYLHLSSLTSGDTAVYYCSRGWEGFAYWGQGTLVTVSA VL: ELVMTQTPASLAVSLGQRATISCRASENVDKYGNSFMHWYQQKAGQPPKLLIYRASELQWGIPARFSGSGSRTDFTLTINPVEADDVATYFCQRSNEVPWTFGGGTKLEIK | 1.99e+06 | 2.76 | 0.00841 | 3.05e+06 | 4.52 | 0.0133 | 0.06 | 0.73 | 0.08 | 1970 | – | 33.1 | 4.58 | 0.265 | koff (EDIII-DV2 [1]): 0.000527 s⁻¹; kon (EDIII-DV3 [4]): 2.95e+06 M⁻¹ s⁻¹
4 | VH_S26_del (antibody, V domains shown) VH: VKLLEQSGAELVKPGASVRLSCTAGFNIKDTYMSWVKQRPEQGLEWIGRIDPENGDTKYDPKFQGKATITADTSSNTAYLHLSSLTSGDTAVYYCSRGWEGFAYWGQGTLVTVSA VL: ELVMTQTPASLAVSLGQRATISCRASENVDKYGNSFMHWYQQKAGQPPKLLIYRASELQWGIPARFSGSGSRTDFTLTINPVEADDVATYFCQRSNEVPWTFGGGTKLEIKR | – | 0.118 | – | – | 2.6 | – | – | 4.42 | > 1.23 | – | < 0.3 | 5.47 | < 0.3 | 0.104 | –
5 | VH_G27P single chain Fv on yeast (scFv, V domains shown) VH: VKLLEQSGAELVKPGASVRLSCTASPFNIKDTYMSWVKQRPEQGLEWIGRIDPENGDTKYDPKFQGKATITADTSSNTAYLHLSSLTSGDTAVYYCSRGWEGFAYWGQGTLVTVSA VL: ELVMTQTPASLAVSLGQRATISCRASENVDKYGNSFMHWYQQKAGQPPKLLIYRASELQWGIPARFSGSGSRTDFTLTINPVEADDVATYFCQRSNEVPWTFGGGTKLEIKR | – | – | – | – | – | – | – | – | – | – | – | – | – | – | Kd (EDIII-DV4 [12]): 53300 nM
6 | VH_G27A (antibody, V domains shown) VH: VKLLEQSGAELVKPGASVRLSCTASAFNIKDTYMSWVKQRPEQGLEWIGRIDPENGDTKYDPKFQGKATITADTSSNTAYLHLSSLTSGDTAVYYCSRGWEGFAYWGQGTLVTVSA VL: ELVMTQTPASLAVSLGQRATISCRASENVDKYGNSFMHWYQQKAGQPPKLLIYRASELQWGIPARFSGSGSRTDFTLTINPVEADDVATYFCQRSNEVPWTFGGGTKLEIKR | 2.08e+06 | 0.0805 | 8.38e-05 | 1.04e+06 | 3.24 | 7.54 | 2.92 | 1.17 | > 1.23 | 43.2 | < 0.3 | 20.6 | < 0.3 | 0.202 | Kd (EDIII-DV4 [3]): 22.1 nM; koff (EDIII-DV4 [3]): 0.0406 s⁻¹; kon (EDIII-DV4 [3]): 1.83e+06 M⁻¹ s⁻¹
7 | VH_G27A single chain Fv on yeast (scFv, V domains shown) VH: VKLLEQSGAELVKPGASVRLSCTASAFNIKDTYMSWVKQRPEQGLEWIGRIDPENGDTKYDPKFQGKATITADTSSNTAYLHLSSLTSGDTAVYYCSRGWEGFAYWGQGTLVTVSA VL: ELVMTQTPASLAVSLGQRATISCRASENVDKYGNSFMHWYQQKAGQPPKLLIYRASELQWGIPARFSGSGSRTDFTLTINPVEADDVATYFCQRSNEVPWTFGGGTKLEIKR | – | – | – | – | – | – | – | – | – | – | – | – | – | – | Kd (EDIII-DV4 [12]): 185 nM
8 | VH_G27_del (antibody, V domains shown) VH: VKLLEQSGAELVKPGASVRLSCTASFNIKDTYMSWVKQRPEQGLEWIGRIDPENGDTKYDPKFQGKATITADTSSNTAYLHLSSLTSGDTAVYYCSRGWEGFAYWGQGTLVTVSA VL: ELVMTQTPASLAVSLGQRATISCRASENVDKYGNSFMHWYQQKAGQPPKLLIYRASELQWGIPARFSGSGSRTDFTLTINPVEADDVATYFCQRSNEVPWTFGGGTKLEIKR | 2.09e+06 | 0.31 | 0.000471 | 1.52e+06 | 2.39 | 0.0483 | 4.78 | 2.67 | > 1.23 | 26.4 | < 0.3 | 9.05 | < 0.3 | 0.269 | koff (EDIII-DV2 [1]): 0.000563 s⁻¹; Kd (EDIII-DV4 [3]): 8.04 nM; koff (EDIII-DV4 [3]): 0.0188 s⁻¹; kon (EDIII-DV4 [3]): 2.34e+06 M⁻¹ s⁻¹; kon (EDIII-DV3 [4]): 2.02e+07 M⁻¹ s⁻¹
9 | 4E11 VL-E59Q (antibody, V domains shown) VH: VKLLEQSGAELVKPGASVRLSCTASGFNIKDTYMSWVKQRPEQGLEWIGRIDPANGDTKYDPKFQGKATITADTSSNTAYLHLSSLTSGDTAVYYCSRGWEGFAYWGQGTLVTVSA VL: ELVMTQTPASLAVSLGQRATISCRASENVDRYGNSFMHWYQQKAGQPPKLLIYRASNLQSGIPARFSGSGSRTDFTLTINPVEADDVATYFCQRSNEVPWTFGGGTKLEIKR | – | – | – | – | – | – | – | – | – | – | – | – | – | – | Kd (EDIII-DV4 [13]): 11000 nM; ΔΔG (ΔGmutant - ΔGWT) (EDIII-DV4 [14]): -0.77 kcal/mol; ΔG (EDIII-DV4 [15]): -6.76 kcal/mol
10 | 4E11 VL-N57E (antibody, V domains shown) VH: VKLLEQSGAELVKPGASVRLSCTASGFNIKDTYMSWVKQRPEQGLEWIGRIDPANGDTKYDPKFQGKATITADTSSNTAYLHLSSLTSGDTAVYYCSRGWEGFAYWGQGTLVTVSA VL: ELVMTQTPASLAVSLGQRATISCRASENVDRYGNSFMHWYQQKAGQPPKLLIYRASELESGIPARFSGSGSRTDFTLTINPVEADDVATYFCQRSNEVPWTFGGGTKLEIKR | – | – | – | – | – | – | – | – | – | – | – | – | – | – | Kd (EDIII-DV4 [13]): 8410 nM; ΔΔG (ΔGmutant - ΔGWT) (EDIII-DV4 [14]): -0.93 kcal/mol; ΔG (EDIII-DV4 [15]): -6.92 kcal/mol
11 | VH_Y106R (antibody, V domains shown, copies: 2 + 2) VH: VKLLEQSGAELVKPGASVRLSCTASGFNIKDTYMSWVKQRPEQGLEWIGRIDPENGDTKYDPKFQGKATITADTSSNTAYLHLSSLTSGDTAVYYCSRGWEGFARWGQGTLVTVSA VL: ELVMTQTPASLAVSLGQRATISCRASENVDKYGNSFMHWYQQKAGQPPKLLIYRASELQWGIPARFSGSGSRTDFTLTINPVEADDVATYFCQRSNEVPWTFGGGTKLEIK | – | – | – | – | – | – | 0.46 | 0.72 | > 1.23 | 272 | – | 33.4 | < 0.3 | – | –
